A word on the Kd: it is the concentration at which binding is half-saturated. Low readings indicate a tighter complex, high ones a looser complex.

This is an account of results in paper PMC10220053, “Molecular basis for Eaf3-mediated assembly of Rpd3S and NuA4” (Cell Discovery, 2023).

T1: Rco1^PHD1 alone (S. cerevisiae, Zn2+-bound PHD finger. Limits for PHD1 alone are not given; taken from the SID-deleted truncation Rco1 240-313 in the text, which covers PHD1 (zinc finger 260-309))
T1 chain: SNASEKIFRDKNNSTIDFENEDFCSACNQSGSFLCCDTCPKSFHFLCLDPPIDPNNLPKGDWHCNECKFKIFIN

T2: C-terminal MRG domain of Eaf3 (Eaf3^MRG, aa 218–401) (S. cerevisiae, UniProt Q12432 218-401)
T2 construct: Eaf3, S. cerevisiae, C-terminal MRG domain, aa 218–401
T2 sequence (looked up): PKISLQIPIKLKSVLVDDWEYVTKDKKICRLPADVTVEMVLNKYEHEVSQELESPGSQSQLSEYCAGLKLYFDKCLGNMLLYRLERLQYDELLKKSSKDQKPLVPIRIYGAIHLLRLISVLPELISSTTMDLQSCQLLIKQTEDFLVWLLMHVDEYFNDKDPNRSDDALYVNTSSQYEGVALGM

B1: H3K4me0^1–12 peptide (peptide, UniProt P61830 2-13, looked up)
peptide: ARTKQTARKSTG
notes: Histone H3, residues 1–12, Lys4 unmodified; also called H3K4me0 peptide; unmodified H3K4
B2: Rco1^PHD1–SID (aa 240–376) (domain or fragment, S. cerevisiae, UniProt Q04779 240-376, looked up)
chain: SNASEKIFRDKNNSTIDFENEDFCSACNQSGSFLCCDTCPKSFHFLCLDPPIDPNNLPKGDWHCNECKFKIFINNSMATLKKIESNFIKQNNNVKIFAKLLFNIDSHNPKQFQLPNYIKETFPAVKTGSRGQYSDEN
notes: also called Rco1^SID1–PHD

The target of one assay is T1, Rco1^PHD1 alone. Nature of the assay: ITC; H3 1–12 peptides with the Eaf3^MRG–Rco1^PHD1–SID complex or with Rco1^PHD1 alone. To be noted: both partners purified.
Assay [1] concerns the target B2. Kind of assay: crystal structure; Eaf3^MRG–Rco1^PHD1–SID–H3K4me0^1–12 ternary complex, 1.60 Å. To be noted: both partners purified.
Assay [2] deals with T2, C-terminal MRG domain of Eaf3 …. Nature of the assay: ITC; SUMO–Eaf7^108–143 or SUMO alone with Eaf3^MRG or the Eaf3^MRG–Rco1^PHD1–SID complex. To be noted: both partners purified. (In ITC the heat of successive injections is recorded.)
The target is the same in assay [3]. Nature of the assay: pull-down; GST pull-down / affinity pull-down of Eaf3^MRG (wild type and mutants) with Rco1^PHD1–SID (wild type, mutants, truncation); which partner carried GST is not told.

In the assay with Rco1^PHD1 alone, B1 returned a Kd of 110 µM. Further, the binding result in assay [1] is reported as “binds”.

In the case of EETLLELNNRIRVRKQDFTLPWEEYGELILENARKS (domain or fragment, S. cerevisiae, UniProt P53911 108-143, looked up) [SUMO–Eaf7^108–143], in assay [2], the Kd is 1000 nM.

Regarding B2, the binding result in assay [3] is “binds”.
